Legend:
[1] = target: human BTN3A as expressed on human cells (PBMC, Daudi, tumour cell lines, HUVEC, HEK293T WT) (human); test: cell-based or functional assay
[2] = target: human BTN3A as expressed on human cells (PBMC, Daudi, tumour cell lines, HUVEC, HEK293T WT) (human); test: flow cytometry on human PBMCs
[3] = target: cynomolgus BTN3A as expressed on cynomolgus PBMCs (cynomolgus monkey (Macaca fascicularis)); test: flow cytometry on cynomolgus PBMCs
[4] = target: human BTN3A as expressed on human cells (PBMC, Daudi, tumour cell lines, HUVEC, HEK293T WT) (human); test: flow cytometry on Daudi lymphoma cells

Functional assay (AML resistant) (γδT cell-based, EC50, µg/mL) [1]: 0.42 µg/mL
Functional assay (AML sensitive) (γδT cell-based, EC50, µg/mL) [1]: 0.12 µg/mL
Functional assay (Daudi) (γδT cell-based, EC50, µg/mL) [1]: 0.02 µg/mL
EC50 [2]: 3.6 µg/mL
EC50 [3]: 7.75 µg/mL
EC50 [4]: 1.44 µg/mL
B1: Chimeric 7.2 (VH0/Vκ0) (antibody, V domains shown)
VH: QVQLQQSGAELVKPGASVKLSCKASGYIFTRYYMYWVKQRPGQGLEWIGEINPNNGGTKFNEKFKNKATLTVDKFSSTAYMQLRSLTSEDSAVYYCSREDDYDGTPFAMDYWGQGTSVTVSS
VL: DIQMNQSPSSLSASLGDTITITCHASQNINVWLSWYQQKPGNIPKLLIYKASNLHTGVPSRFTGSGSGTGFTLTISSLQPEDIATYYCQQGQTYPYTFGGGTKLEIK
